The nanobody polyreactivity screen of Harvey et al. (2022)

Assay: yeast display, Sf9 membrane polyspecificity reagent, FACS + sequencing; frameworks hold sequencing errors
Summary of the method: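 Synthetic nanobody libraries on Saccharomyces cerevisiae BJ5465 were galactose-induced for 36–48 hours, stained 1 hour at 4 °C with 10% biotinylated, detergent-solubilized Sf9 membrane reagent and enriched on streptavidin microbeads. FACS then separated cells into low and high (top ~1%) gates by anti-HA (expression) and streptavidin (reagent binding) fluorescence. Genes were colony-PCR amplified, MiSeq 2 × 250 sequenced and CDR-length filtered. A clone's polyreactivity label is that of its gate of origin.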

Sequence | polyreactivity (PSR sort gate)
QVQLVESGGGLVQAGGSLRLSCAASGSTFYRNAMGWYRQAPGKERELVAAITSGGSSTYYADSVKVRFTISRDNAKNTVYLQMNSLKPEDTAVYYCAAEPGIYYYWGQGTQVTVSS | low polyreactivity
QVQLVESGGGLVQAGGSLRLSCAASGSTFGSYTKGWSRPAPGQERELVAAINWSGGNTYYADSVKGRFTISRDNAKNTVYLQMTSLKREDTAVYYCAAAFYIYGVEGDYWGQGTQVTVSS | low polyreactivity
QVQLVESGGGLVQAGGSLRLSCAASGSTFLSYAMGWYRQAPGTERELVAGIDWSTGDTYYADSEKGRFTISRDNAKNTVYLQMNSLKPEDTAVYYCNKANLYRFWEIDYWGQGTQVTLSS | high polyreactivity
QVQLVESCGGLVQAGGSLRLSCDASVSIFYRNAMGWYRQAPGKERELVAAIRSGGSTNYADSVKGRFTISRDNAKNTVYLQMNSLKPEDTAVYYCAAGYFWRQYKMGYWGQGTQVTVSS | high polyreactivity
QVQLVESGGGLVQAGGSLRLSCAASGRIFSYYAMGWYRQAPGKERELVASITSGGSTYADSVKGRCTISRDSAKNTVYLQMNSLKREDTAVYYCAAGGKRRWPRKHYGYWGQGSQVTVSS | high polyreactivity
QVQLVESGGGLVQAGGSLRLSCAASGIIFAYAMGWYRQAPAKEREMVAAISGRDGSTYYADSVKGRFTISRDNAKNTVYLQMNSLKPDDTAVYYCAKRFSDLPVEMDYWGQGTQVTVSS | low polyreactivity
QVQLVESGGGLVQAGGSLRLSCAASGSTFRIYAMGWYRQAPGKERELVAAITSGGDTNYADSVKGRFTISRDNAKNTVYLQMNSLKPEDTAVYYCAADGHSVYTELDYWGQGTQVTVSS | low polyreactivity
QVQLVESGGGLVQAGGSLRLSCAASGRIFVYYAMGWYRQAPGKERELVAAISSSGGSTYYADSVKGRFTISRDNAKNTVYLQMNSLKPEDTAVYYCNAVTYFSLSYPRHDYWGQGTQVTVSS | high polyreactivity
QVQLVESGGGLVQAGGSLRLSCAASGSTFHGNAMGWYRQAPGKERELVAAISRSGGSTYYADSVKGRFTISRDNAKNTVYLQMNSLKPEDTAVYYCAADRPYYPLKYDYWGQGTQVTVSS | high polyreactivity
QVQLVESGGGLVQAGGSLRLSCAASGGTFVGYAMGWYRQAPGKERELVAAINSSGGRTYYADSVKGRFTISRDNAKNTVYLQMNSLKPEDTAVYYCAKPRTYHKDKYDYWGQGTQVTVSS | high polyreactivity
QVQLVESGGGLVQAGGSLRLSCAASGSTNYPNAMGWYRQAPGKESELVARISRNGGSTYADSVKGRFTISRDNAKNTVYFQMNSLKPEDTEVYYCARSYASFSWLRTKEPYEYWGQGTQVTVSS | low polyreactivity
QGQLVESGGGLVQAGGSLRLSCAASGRTVGEYTMGWSRPAPGKERELVAAISSAGRTNYADSVKGRFTISRDNAKNTVYLQMHRLKPEDTAVYYCAADWTDDVPGYDYWGQGTKVTVSS | low polyreactivity
QFQLVESGGGLVQAGGSLRLSCAASGIIFLENAMGWYRQAPGKEREFVAAISRSGGITYYADSVKGRFTISRDNAKNTVYLQMNSLKPEDTAVYYCAAVGRDRYRHSPQPLYDYWGQGTQVTVSS | low polyreactivity
QVQLVESGGGLVQAGGSLRLSCAASGFIFSSYAMGSYRQAPGKERELVAAISWSGGSTYYADSVKGRFTISRDNAKNTVYLQMKSLKPEDAAVYYCASVTRIFDYWGQGTQVTVSS | high polyreactivity
QVQLVESGGGLVQAGGSLRLSCAASGLIFWLNAMGWYRQAPGKERELVATITAGGDDTNYADSVKGRFTISRDNAKNTVYLQMNSLKPEDTAVYYCAKSRTRSGHYGYDYWGQGTQVTVSS | low polyreactivity
QVQLVESGGGLVQAGGSLRLICAASGSTFHTYAMGWYRQAPGKERELVATITWDGGRTYYADSVKGRFTISRDNAKNTVYLQMNSLKPEDPAVYYCAADYWSIEMDYWGQGTQVTVSS | low polyreactivity
QVQLVESGGGLVQAGGSLRLSCAASGSIFSTYAMGWYRQAPGKERELVAAISQGGSSTYYADSVKGRFTISRDIAKNTVYLQMKSLKAEDTAVYYCAKFPYLKFGYDYWGQCTQVTVSS | high polyreactivity
QVQLVESGGGLVQAGGSLRLSCAASGITFRYYAMGWYRQAPGKERELVAAISSTGGSTYYADSVKGRFTISRDNAKNTVYLQMNSLKPEDTAVYYCNADTTFYGYRTYRPENYWGQGTQVTVSS | high polyreactivity
QVQLVESGGGLVQAGGSLRLSCAASGSTFYFNAMGWYRQAPGKERELVAGIRYSGSSTYYADSVKGRFTISRDNAKNTVYLQMNSLKPEDTAVYYCAARYSVYPRVSKYSYRFNYWGQGTQVTVSS | high polyreactivity
QVQLVESGGGLEQAGGSIRLNCAASGSTFRYNAMGWYRQARGKERELVAAITWSGGSTYFADSVKGRFTISRDNAKHNVYLQMNSLKAEDTAVYYCAKVYFWGALSPYKYDEDYWGQGTQVTVSS | low polyreactivity
QVQLVESGGGLVQAGGSLRLSCAASGFIFGYYTMGWYRQAPGKERELVAAISSRGGSTYYADSVKGRFTISRDNAKNTVYLQMNSLKPEDTAVYYCAKRSTYTGSWWERGYWGQGTQVTVSS | high polyreactivity
QVQLVESGGGLVQAGGSLRLSCAASGRTFSRYAMGWYRQAPGKERELVAAISRGGGSTNYADSVKGRFTISRDNAKNTVYLQMNSLKPEDTAVYYCASEYRYDWYTYGSWGQGTQVTVSS | high polyreactivity

Sequence | polyreactivity (PSR sort gate)
QVQLVESGGGLVQAGGSLLISCAASGRTLDFNVMGWYRQAPGKERELVAAITWSGGSTYYADSVKGRFTISRDNAKNTVYLQMNSLKPEDTAVYYCAKDRWYWARRYDYWGQGTQVTVSS | high polyreactivity
QVQRVESGGGLVQEAGSLRLSCAASGSILGINVMGWYRHDHGKQRDLVAAISRSGGTTYYADSVKGRFTISRDNGKNTVYLQMNSLKPEDTAVYSCAVYNRPYKEYGYNYCGQGTQVTVSS | high polyreactivity
QVQLVESGGGLVQAGGSLRLSCAASGFIYYSYTMGWYRQAPGKERELVATISSNGGRTYYADSVKGRYTISRDNAKNTVYLQMNSLKPEDTAVYYCATDVPHGYYWSYGDYYWGQRTQVTVSS | low polyreactivity
QDQHVESGGGLVQAGGSLRLSCDASGRTFRKNAMGSYRQARGKERELVAAISWSGDSTYYADSVKGRFTISRDNAKNTVYLQMNSLKPEDSAVYYCAADSRYHFYYWRQGTQVTVSS | high polyreactivity
QVHLVESGGGLDQAGGSLRLSCAASGRTFKSYTMGWYRQAPGKEREFVAAISSRGGNTYYADSVKGRFTISRDNAKNTVYLQMNSLKPEDTAVYYCAAESSYWSFPTYDYWGQGTQVTVSS | high polyreactivity
QVQLVESGGGLVQAGGSLRLSCPASGRTFYLYAMGWYRQAPGKVRELVARISGGGGRTYYADSVKGRFTISRDNAKNTVYLQMNSLKPEDSAVYYCNAQSPRGFTTPRQVYPLNGYWGQGTQVTVSS | high polyreactivity
QVQLVESRGGLVQAGGSLRLRCAASGYIYYQYAMGWSRHAPGKETALVGAISLSGGMTYYADSVKGRFTISRDNAKNTVYLQMNSLKPEETGVYFCNAQSRVWCKVYYWGQGTQVTVSS | high polyreactivity
QVQHLESGGGLVQAGRSLRLSCAASGSTFITNTMGWYIKATGKERELLAAISKSGGSTYYADSVKGRFTISRDNAKNTVYLQMNSLKPEDTAVYYCAADIYVRDRGVKYDYWGQGTQVTVSS | low polyreactivity
QVQLVESGGGLVQAGGSLRLSCAASGSIFKYYTMGWSRQAPGKERELVAAINSSGGSTYYADSVKGRFTISRYNAKNTVYLQMYSLKPEDTAVYYCIAVTSRRWRYELDYLGQGTQVTVSS | high polyreactivity
QVQLVESGGGLVQAGGSLRLSCAASGSTFLGNVMGWYRQAPGKERELVAAISRGGSRTYYADSVKGRFTISRDNAKNTVYLQMNSLKPEDTAVYYCAAEPYAASRSGEFNYWGQGTQVTVSS | low polyreactivity
QVQLVESGGRLVQAGGSLRLSCAASGRTFGWYAMGWYRQAPGKERELVAAINRRVGRTYYADSVKGRFTISRDNAKNTVYLQMNSLIPEDTAVYYCAVKQGFYSRALKLYYWGQGTQVTVSS | high polyreactivity
QDQLVESGGGLVQAGGSLRLIFAASGSIFNGYAMGWSRQAPGKERELVADIRSGGSTYYADSVMGRFTISRDNAKNTVYLQMNSLKPEDTAVYYGAADTITDGYDYWGQGSQVTVSS | low polyreactivity
QVQLVESGGGLVQAGGSLRLICAASGSTLYRYAMGWYRPAPGKERELVAAISSAGSTHYADSVKGRFTISRDNAKNTVYLQMNSLKPEDTAVYYCAAKRYLKYGYWGQGTQVTVSS | high polyreactivity
QVQLVESGVGLVQAGGSLRLSCASSGRTFYDYAMGWYRQAPGKERELVATISSRGDGTYYADSVKGRFTISRDYAKITVCLLMNSLKPEDTAVYYCAARYRRVHSGYGYWGQGTHVTVSS | high polyreactivity
QVQLVESGGGLVQAGGSLRLSCAASGLPFQEYAMGWYRQAPGKEREFVAAISASGGSTYYADSVKGRFTISRDNAKNTVYLQMNSLKPEDTAVYYCNKYGTVGYGSYGYWGQGTQVTVSS | high polyreactivity
QVQLVESGGGLVQAGGSLRLSCAASGIIVPNAMGWYRQAPGKERELVAVITSGGSTYYADSVKGRFTISRDNAKNTVYLQMNSLKPEDTAVYYCNKDYAAIDRYDSWGQGTQVTVSS | low polyreactivity
QVQLVESGGGLVQAGGSLRLSCAASGSTFEDYAMGWYRQAPGKERELVAVITGNGGSTNYADSVKGRFTISRDNAKNTVYLQMNSLKPEDTAVYYCAADFYTFVRSDYWGQGTQVTVSS | low polyreactivity
QVQLVESGGGLVQAGGSLRLSCASSGSTFKYYAMGWYRQAPGKERELVAAISSGGSTYYADSVKGRFTISRDNAKNTVYLLMNSLKPEDTAVYDCAARGYYGNFSGSGYWGQGTQVTVSS | high polyreactivity
QVQLVESGGGLVQAGGSLRLSCAASGSTFQENAMGWYRQAPGKEREFVAAISGSGGSTYYADSVKGRFTISRDNAKNTVYLQMNSLKPEDTAVYYCAARHYFRSRRRYDYWGQGTQVTVSS | low polyreactivity
QVQLVESGGGLVQAGGSLRLSCAASGFTFSPYTMGSYRQAPGKERELVAGITSRGGSTYYADSVKGRFTISRDTAKNTVYLQMNILKPEDSAVYYCAARSPGYYRIVWYDYWGQGTQVTVSS | high polyreactivity
QVQLVESGGGLVQAGGSLRLSCAASGLTFDWYALGWYRQAPGKERELVAAISWNGVSTDYADSVKGRFTISRDNAKNTVYLQMNSLKPEDTAVYYCNAKGQRNKRWRGYWGQGTQVTVSS | high polyreactivity
